Patent US20240218024A1, “METHODS AND COMPOSITIONS FOR TREATMENT OF VIRAL INFECTION” (TECHNION RESEARCH & DEVELOPMENT FOUNDATION LIMITED, priority 2021, published 2024)

What was measured:
[1] = test system: SARS-COV-2 delta variant; type: cell-based; conditions: slncRNA alone, low concentrations (potentially a non-specific effect at higher concentrations)
[2] = test system: SARS-COV-2 omicron variant; type: cell-based; conditions: slncRNA alone, low concentrations (potentially a non-specific effect at higher concentrations)

B1: PCP-14×/MCP-15×: class II slncRNA with fourteen PCP binding sites spaced by hairpins that do not bind PCP (SEQ ID NO: 28) (nucleic acid)
chain: GAGAAACGTTTCGACATTATATGGAATGCGAAAGTGGAACGTAATGGACATGAAGACGATTACGCTTCACACGGAGGATGCGGGAAACATGAAGATCACCCATGTTCGCTTAACCATGGATAGGGATCACCCATGTTGCGGTGGTGCGTCAACCAGAGATTTCATATGGGAAACTCTGGGACACGCTGTATTTATACATGAGGATCACCATGTGTGCTTAAATATGGGTAAGTTGACCATTAGGCAACTGTAAGATGCTCCGGTTAATTCCAGTTTATATGGAAACGGAATTGATGTACCGTTGAGCAAGAACACGATTACGGTTCTTCGATTAGATATGGTTTAAACGACAATATATGGATTGCGTTTTGGGGCACGCCGTCTGGAGAAGACCATTAGGCTTCTTTACTGCGACCGCAATAAAAGGAGATTATATGAAATCCCTTTGCGCGCAACCGGGTAGAAGATCACCATTAGGGATCTGTAACTCACGGCGCTATTACGAGTCAATATGGTGACCGTAAAGCTAGGGCATGTGCCAGAAGAGCATTAGCCTTCTCCTTGGTGGGGAAGCGATAAGCACATTATAAGGAATGGCTTAAAGTGGTGCGGCGGGGGACTTGACCATTAGGCAAGTGTGCTAGACCCTGGTCTTTTCGAGAAAATATGGTTTCCGAAAGAACTATACGAAGTGACATGCGAGGATTACCCGCATATGGTGCAAATGGGAGAATTGGAGTAAATATGGTTACCCAATAGGCTAGAGCATGACGGCAGTGAGAATTATCCACTGGTTAGCGGGTTACCGAGATTGCACATTATATGGAATGGCAATTGATTCATGCCGGTCGTTTGTGAGGAGTACCCACAAAATGGGAGGGTGCTATATAACCAGGTTATATGCAACCGGTTAGGCCGTTGTGTTAGTTTAGTTCAGCATTAGCGAACTGTGCAAGACCCGGTGGCTAAGGAGTTTATATGGAAACCCTTAGCCCTCGAGCATGCTAACATGAGGATTACCCATGTGATGGGTTTGAAACGTGCAATTATTTGATATGGCAAAAATTGGGTAGGGCATGGCTGCAGCGTGAGAATTATCCACGCTAGGCTAGAGCATGGCGGTATTGAGTTCGGGTTTGAGATGACCATTAGGCATCTGTGCTAGAGCATGCGAAAACGACATAATATGGTATGCGTTTTGGGGTGCTAGTATACCACATGATGAGCACACATGTATGGGTGGGAGGTAGAGGGATTCTCGCGAGAAGA
With B1 the antiviral response [1] was “no substantial antiviral response” and the antiviral response [2] was “no substantial antiviral response”.
